Molecular target: MYB96 (Arabidopsis thaliana) (UniProt Q24JK1)
Test: cell_activity
Conditions: GUS reporter activation in Arabidopsis protoplasts

Chain of UniProt Q24JK1 (Q24JK1 whole entry): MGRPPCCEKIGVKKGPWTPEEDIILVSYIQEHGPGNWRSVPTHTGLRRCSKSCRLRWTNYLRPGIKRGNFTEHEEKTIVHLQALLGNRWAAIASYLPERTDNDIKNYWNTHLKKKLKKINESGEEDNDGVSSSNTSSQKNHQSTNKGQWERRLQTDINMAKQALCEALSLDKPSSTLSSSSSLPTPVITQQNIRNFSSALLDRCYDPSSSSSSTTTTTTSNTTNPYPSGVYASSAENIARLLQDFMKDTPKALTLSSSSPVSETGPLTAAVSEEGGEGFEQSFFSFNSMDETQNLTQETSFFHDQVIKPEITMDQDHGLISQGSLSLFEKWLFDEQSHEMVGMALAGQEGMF

Substance KCS1-BS in pKCS-P reporter has an activity of over 6 fold.

— US8716556
